Results on 18 molecules are retold here after patent US20220031857A1 (OSSIANIX, published 2022).

Substitutions are numbered along the chain they refer to.

B1: SEQ ID NO 28 (VNAR clone displayed on phage) (VNAR)
VNAR: ARVDQTPQTITKETGESLTINCVLRDSNCALSNLYWYRKKSGSTNEESISLGGRYVETVNSGSKSFSLRINDLTVKDSGTYRCNVFSFSCQLLFDVYGGGTAVTVNA
notes: shark VNAR domain on M13 phage; coat-protein fusion not described
B2: SEQ ID NO 24 (VNAR clone displayed on phage) (VNAR)
VNAR: ARVDQTPQTITKETGESLTINCVLRDSNCALSNLYWYRKKSGSTNEESISKGGRYVETVNSGSKSFSLRINDLTVKDSGTYRCNVLVSMFCQLAQDVYGDGTAVTVNA
notes: as for B1
B3: SEQ ID NO 15 (VNAR clone displayed on phage) (VNAR)
VNAR: ARVDQTPQTITKETGESLTINCVLRDSNCALPSTYWYCKKSGSTNEESISKGGRYVETVNSGSKSFSLRINDLTVKDSGTYRCKVHVRAQSLCCQCWYGDVYGDGTAVTVNA
notes: as for B1
B4: SEQ ID NO 21 (VNAR clone displayed on phage) (VNAR)
VNAR: ARVDQTPQTITKETGESLTINCVLRDSNCALSSTYWYRKKSGSTNEESISKGGRYVETVNSGSKSFSLRINDLTVEDSGTYRCKVLTSQSQGGCVRVLYSDVYGDGTAVTVNA
notes: as for B1
B5: SEQ ID NO 29 (VNAR clone displayed on phage) (VNAR)
VNAR: ARVDQTPQTITKETGESLTINCVLRDSNCALSNLYWYRKKSGSTNEESISLGGRYVETVNSGSKSFSLRINDLTVEDSGTYRCKVSTSVPRHYDNCRQRRHDVYGGGTAVTVNA
notes: as for B1
B6: SEQ ID NO 17 (VNAR clone displayed on phage) (VNAR)
VNAR: ARVDQTPQTITKETGESLTINCVLRDSNCALPSTYWYRKKSGSTNEESISKGGRYVETVNSGSKSFSLRINDLTVKDSGTYRCNVARHWTQSCAYHRDVYGGGTAVTVNA
notes: as for B1
B7: SEQ ID NO 22 (VNAR clone displayed on phage) (VNAR)
VNAR: ARVDQTPQTITKETGESLTINCVLRDSNCALSSTYWYRKKSDSTNEESISKGGRYVETVNSGSKSFSLRINDLTVEDSGTYRCKVHSFNMDVCAEFQYSDVYGDGTAVTVNA
notes: as for B1
B8: SEQ ID NO 23 (VNAR clone displayed on phage) (VNAR)
VNAR: ARVDQTPQTITKETGESLTINCVLRDSNCALSNLYWYRKKSGSTNEESISKGGRYVETVNSGSKSFSLRINDLTVEDSGTYRCNVINFFAMECEYQVGDVYGDGTAVTVNA
notes: as for B1
B9: SEQ ID NO 31 (VNAR clone displayed on phage) (VNAR)
VNAR: ARVDQTPQTITKETGESLTINCVLRDSNCDLSRTYWYRKKSGSTNEESISKGGRYVETVNSGSKSFSLKINDLTVEDSGTYRCNVFLWNNYNPMDVYGGGTAVTVNA
notes: as for B1
B10: SEQ ID NO 25 (VNAR clone displayed on phage) (VNAR)
VNAR: ARVDQTPQTITKETGESLTINCVLRDSNCALSNLYWYRKKSGSTNEESISLGGRYVETVNSGSKSFSLRINDLTVEDSGTYRCNVCLLQLAGYDSPYDVYGGGTAVTVNA
notes: as for B1
B11: SEQ ID NO 30 (VNAR clone displayed on phage) (VNAR)
VNAR: ARVDQTPQTITKETGESLTINCVLRDSNCALSNLYWYRKKSGSTNEESISLGGRYVETVNSGSKSFSLRINDLTVEDSGTYRCNVCQWLQWYGGEMEDVYGGGTAVTVNA
notes: as for B1
B12: SEQ ID NO 18 (VNAR clone displayed on phage) (VNAR)
VNAR: ARVDQTPQTITKETGESLTINCVLRDSNCALPSTYWYRKKSGSTNEESISKGGRYVETVNSGSKSFSLRINDLTVKDSGTYRCNVQHIFQHNCYWFLYDVYGGGTAVTVNA
notes: as for B1
B13: SEQ ID NO 14 (VNAR clone displayed on phage) (VNAR)
VNAR: ARVDQTPQTITKETGESLTINCVLRDSNCALPSTYWYRKKSGSTNEESISKGGRYVETVNSGSKSFSLRINDLTVEDSGTYRCKVTFSAFEYCYVFKVQCDVYGDGTAVTVNA
notes: as for B1
B14: SEQ ID NO 19 (VNAR clone displayed on phage) (VNAR)
VNAR: ARVDQTPQTITKETGESLTINCVLRDSNCALPSTYWYRKKSGSTNEESISKGGRYVETVNSGSKSFSLRINDLTVEDSGTYRCNVGWSTQYYCVLPDVYGGGTAVTVNA
notes: as for B1
B15: SEQ ID NO 13 (VNAR clone displayed on phage) (VNAR)
VNAR: ARVDQTPQTITKETGESLTINCVLRDSNCALPSTYRYRKKSGSTNEESISKGGRYVETVNSGSKSFSLRINDLTVEDSGTYRCKVTMVRGRGCYQPARGQDVYGGGTAVTVNA
notes: as for B1
B16: SEQ ID NO 26 (VNAR clone displayed on phage) (VNAR)
VNAR: ARVDQTPQTITKETGESLTINCVLRDSNCALSNLYWYRKKSGSTNEENISKGGRYVETVNSGSKSFSLRINDLTVEDSGTYRCNVDVTRCTQSQDVYGGGTAVTVNA
notes: as for B1
B17: SEQ ID NO 27 (VNAR clone displayed on phage) (VNAR)
VNAR: B16 VNAR with I10V, N48S, K51L, D86K, V87H, T88Y, R89V, T91M, Q94K, A102V
notes: as for B1
B18: SEQ ID NO 20 (VNAR clone displayed on phage) (VNAR)
VNAR: ARVDQTPQTITKETGESLTINCVLRDSNCALPSTYWYRKKSGSTNEESISKGGRYVETVNSGSKSFSLRINDLTVEDSGTYRCNVYTSYCCSVADVYGGGTAVTVNA
notes: as for B1

T1 sequence (Q62351 89-763 limits assumed): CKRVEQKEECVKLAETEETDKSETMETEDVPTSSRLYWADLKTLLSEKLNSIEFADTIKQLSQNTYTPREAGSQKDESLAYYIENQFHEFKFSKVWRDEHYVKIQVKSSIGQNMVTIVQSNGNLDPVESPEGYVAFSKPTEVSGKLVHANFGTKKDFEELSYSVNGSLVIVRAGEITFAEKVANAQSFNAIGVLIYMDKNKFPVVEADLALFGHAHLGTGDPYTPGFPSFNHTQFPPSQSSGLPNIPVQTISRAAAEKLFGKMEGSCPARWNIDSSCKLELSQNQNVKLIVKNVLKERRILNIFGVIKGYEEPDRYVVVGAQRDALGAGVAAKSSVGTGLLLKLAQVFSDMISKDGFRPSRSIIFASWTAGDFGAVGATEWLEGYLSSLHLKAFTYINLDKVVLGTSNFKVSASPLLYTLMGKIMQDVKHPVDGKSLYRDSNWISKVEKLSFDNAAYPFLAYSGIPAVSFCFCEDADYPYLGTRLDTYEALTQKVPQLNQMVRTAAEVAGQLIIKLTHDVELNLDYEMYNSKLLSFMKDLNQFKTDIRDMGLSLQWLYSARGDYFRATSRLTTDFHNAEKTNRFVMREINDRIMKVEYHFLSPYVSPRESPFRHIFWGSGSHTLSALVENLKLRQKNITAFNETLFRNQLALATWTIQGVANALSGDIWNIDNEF
T2 sequence (P02786 89-760 limits assumed): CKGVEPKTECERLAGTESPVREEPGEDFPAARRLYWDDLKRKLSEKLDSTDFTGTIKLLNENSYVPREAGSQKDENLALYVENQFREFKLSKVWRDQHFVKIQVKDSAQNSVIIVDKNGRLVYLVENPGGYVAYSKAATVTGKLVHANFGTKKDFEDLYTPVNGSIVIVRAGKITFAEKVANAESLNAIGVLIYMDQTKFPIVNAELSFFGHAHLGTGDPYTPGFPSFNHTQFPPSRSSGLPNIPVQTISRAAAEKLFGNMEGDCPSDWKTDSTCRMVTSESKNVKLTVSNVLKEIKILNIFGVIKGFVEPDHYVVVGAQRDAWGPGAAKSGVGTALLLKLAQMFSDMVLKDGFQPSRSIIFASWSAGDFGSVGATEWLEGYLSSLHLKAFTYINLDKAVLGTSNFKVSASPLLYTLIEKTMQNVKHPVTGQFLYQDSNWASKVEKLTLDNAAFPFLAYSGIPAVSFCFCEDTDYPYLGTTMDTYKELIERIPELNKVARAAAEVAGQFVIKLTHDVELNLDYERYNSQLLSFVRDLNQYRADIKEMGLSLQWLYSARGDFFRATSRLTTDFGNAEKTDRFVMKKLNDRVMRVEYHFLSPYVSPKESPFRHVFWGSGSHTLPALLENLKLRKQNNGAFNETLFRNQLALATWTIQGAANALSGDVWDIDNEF

One assay has as its target T1, recombinant mouse TfR1 (transferrin receptor 1) (mouse, UniProt Q62351 89-763).
T1 construct: Bought recombinant His-tagged protein; also called mTfR1
The experiment in a line: phage ELISA. For orientation: An ELISA detects its analyte on a solid surface through an enzyme-linked reagent.
In the case of B1, the binding result is listed as “binds”.

B2: the binding result is given as “binds”.

As for B3, the binding result is “binds”.

Turning to B4, the binding result is recorded as “binds”.

Turning to B5, the binding result is “binds”.

Consider B6, for which the binding result is “binds”.

For B7, the binding result was “binds”.

Consider B8, for which the binding result is given as “binds”.

Take B9: the binding result is recorded as “binds”.

For B10, the binding result was “binds”.

B11: the binding result is on record as “binds”.

On to B12, for which the binding result is “binds”.

For the molecule B13, the binding result is “binds”.

As to B14, the binding result is on record as “binds”.

For the molecule B15, the binding result is on record as “binds”.

As for B16, the binding result is reported as “binds”.

On to B17, for which the binding result is reported as “binds”.

B18: the binding result is listed as “binds”.

Another assay has as its target T2, recombinant human TfR1 (transferrin receptor 1) (human, UniProt P02786 89-760).
T2 construct: Bought recombinant His-tagged protein; also called hTfR1
As to the kind of experiment: phage ELISA.
Turning to B1, the binding result is reported as “binds”.

As to B2, the binding result is “binds”.

Regarding B3, the binding result is “binds”.

B4: the binding result is “binds”.

Turning to B5, the binding result is reported as “binds”.

For the molecule B6, the binding result is listed as “binds”.

With B7, the binding result is “binds”.

For B8, the binding result is recorded as “binds”.

For B9, the binding result is listed as “binds”.

For the molecule B10, the binding result is reported as “binds”.

Regarding B11, the binding result is “binds”.

B12: the binding result was “binds”.

Regarding B13, the binding result was “binds”.

As to B14, the binding result is listed as “binds”.

In the case of B15, the binding result was “binds”.

As to B16, the binding result is “binds”.

Regarding B17, the binding result is on record as “binds”.

Take B18: the binding result is given as “binds”.
